The target in data set [1] is T1, SyCS (Synechocystis sp. PCC 6803, UniProt Q59977).
T1 construct: gene gltA; full-length gltA (synthesized) in pGEX5X-1, GST-tagged, tag not reported cut; expressed in E. coli DH5alpha, glutathione-Sepharose purified
T1 sequence (Q59977 1-397): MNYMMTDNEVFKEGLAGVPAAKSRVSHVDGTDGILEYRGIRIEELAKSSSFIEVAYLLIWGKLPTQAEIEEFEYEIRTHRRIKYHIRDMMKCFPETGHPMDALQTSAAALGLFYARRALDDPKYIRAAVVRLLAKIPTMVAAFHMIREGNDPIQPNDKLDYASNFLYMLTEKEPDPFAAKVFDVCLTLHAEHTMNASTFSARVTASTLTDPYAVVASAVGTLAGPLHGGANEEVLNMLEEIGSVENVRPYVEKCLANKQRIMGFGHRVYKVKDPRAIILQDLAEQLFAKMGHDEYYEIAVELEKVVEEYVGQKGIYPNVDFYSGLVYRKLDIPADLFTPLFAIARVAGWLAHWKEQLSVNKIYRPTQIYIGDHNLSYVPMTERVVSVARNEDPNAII
Briefly: DTNB assay at A412, relative activity. The format is biochemical. To be noted: read-out: % activity at 5 mM.

The target in data set [2] is T1, SyCS. Description: DTNB assay at A412, residual activity. In kind it is biochemical. Conditions: read-out: % activity at 5 mM.
Substrate in data set [3]: CC(=O)SCCNC(=O)CCNC(=O)[C@H](O)C(C)(C)COP(=O)(O)OP(=O)(O)OC[C@H]1O[C@@H](n2cnc3c(N)ncnc32)[C@H](O)[C@@H]1OP(=O)(O)O
Briefly: DTNB assay at A412, Lineweaver-Burk. The format is biochemical, Synechocystis sp. PCC 6803. Conditions: oxaloacetate 1 mM, no effector, 50 mM Tris-HCl pH 7.5, 37 °C, GST-tagged enzyme. From the text:
(§1) DTNB assay at […], Lineweaver-Burk on SyCS

Substrate in data set [4]: O=C(O)CC(=O)C(=O)O
Description: DTNB assay at A412, Lineweaver-Burk. In kind it is biochemical, Synechocystis sp. PCC 6803. To be noted: acetyl-CoA 0.5 mM, no effector, 50 mM Tris-HCl pH 7.5, 37 °C, GST-tagged enzyme.
From the text: as §1

With `Nc1ncnc2c1ncn2[C@@H]1O[C@H](COP(=O)(O)OP(=O)(O)O)[C@@H](O)[C@H]1O` [ADP], the activity at 5000 µM in data set [1] stood at 369%.

On to `O=C(O)CCC(=O)C(=O)O` [2-oxoglutarate], for which the activity at 5000 µM in data set [2] was found to be 2%.

As for `C=C(OP(=O)(O)O)C(=O)O` [phosphoenolpyruvate], the activity at 5000 µM in data set [2] worked out at 14%.

B1: SyCS (Synechocystis sp. PCC 6803 substr. Kazusa) (protein)
chain: T1 sequence (Q59977 1-397)
notes: full-length gltA (synthesized) in pGEX5X-1, GST-tagged, tag not reported cut; expressed in E. coli DH5alpha, glutathione-Sepharose purified
B1: in data set [3], the Km came to 220 ± 77 µM, the kcat amounted to 2.51 ± 0.24 s⁻¹ and the kcat/Km is 12100 ± 2950 M⁻¹ s⁻¹. Besides, in data set [4], the Km turned out to be 91 ± 11 µM, the kcat came to 2.76 ± 0.26 s⁻¹ and the kcat/Km came to 30500 ± 3170 M⁻¹ s⁻¹.

The values are drawn from PMC6465352 (Scientific Reports, 2019).
